“And” between values parts separate entries of the source, which are not always exact repeats. Identical values can stand only once.

The values below come from paper PMC3949515, “Multi-PAS domain-mediated protein oligomerization of PpsR from Rhodobacter sphaeroides” (Acta Crystallographica Section D: Biological Crystallography, 2014).

Data set [1] deals with PpsR_(N-Q-PAS1), PpsR variant comprising the N-terminal domain, the Q-linker and the PAS1 domain (Rhodobacter sphaeroides) (UniProt Q9S301). The data set is described as follows: MST; dimer to monomers, KD based on the total monomer concentration; Monolith NT.115, unlabelled protein titrated (1:2 dilution series) into NT-647-labelled protein (10 nM for PpsR_(N-Q-PAS1)), buffer D, three experiments averaged.

The target is the same in data set [2]. The data set is described as follows: crystal structure; PpsR_(N-Q-PAS1), 10 mg/ml, 1.6 M ammonium sulfate, 100 mM MES pH 6.5, 10 mM L-cysteine, 4% 1,4-dioxane, 293 K; dimer in the asymmetric unit; 2.2 Å.
Data set [3] shares this target. The data set can be described thus: SEC-MALS; Superdex 200 10/300 GL, buffer D (10 mM CHES pH 9.0, 150 mM NaCl, 5% glycerol), 400 µl of a 20 µM protein solution loaded, 0.5 ml/min. A general note: Size exclusion chromatography separates by hydrodynamic size, large species first.
Data set [4] deals with PpsR_(Q-PAS1), PpsR variant comprising the glutamine-rich linker (Q-linker) and the PAS1 domain (Rhodobacter sphaeroides) (UniProt Q9S301). The data set can be described thus: crystal structure; PpsR_(Q-PAS1), 8 mg/ml, 100 mM sodium cacodylate pH 6.5, 1.9% PEG 3000, 200 mM MgCl2, 293 K; one chain in the asymmetric unit, dimer by a crystallographic dyad; 1.65 Å.
Data set [5] concerns the molecule itself. The data set is described as follows: crystal structure; PpsR_(ΔHTH), 30 mg/ml, 1 M ammonium sulfate, 100 mM Tris-HCl pH 8.5, 6% xylitol, 12% glycerol, 1% dioxane, 293 K; four chains in the asymmetric unit, octamer by a crystallographic twofold axis; 2.8 Å.
Data set [6] concerns the molecule itself. The data set can be described thus: MST; tetramer to dimers, KD based on the total dimer concentration; Monolith NT.115, unlabelled protein titrated (1:2 dilution series) into 12.5 nM NT-647-labelled protein, buffer D, three experiments averaged.
Data set [7] concerns the molecule itself. The data set can be described thus: SEC-MALS; Superdex 200 10/300 GL, buffer D (10 mM CHES pH 9.0, 150 mM NaCl, 5% glycerol), 400 µl of a 20 µM protein solution loaded, 0.5 ml/min.

For “PpsR_(N-Q-PAS1), PpsR variant comprising the N-terminal domain, the Q-linker and the PAS1 domain (from UniProt Q9S301 1-257) (domain or fragment)”, the Kd in data set [1] was 250 nM. The stoichiometry N in data set [2] and in data set [3] was 2 throughout.
In data set [4], “PpsR_(Q-PAS1), PpsR variant comprising the glutamine-rich linker (Q-linker) and the PAS1 domain (from UniProt Q9S301 123-257) (domain or fragment)” yielded a stoichiometry N of 2.

B1: PpsR_(ΔHTH), triple PAS domain construct of PpsR (N-domain, Q-linker, PAS1, PAS2) lacking the C-terminal HTH motif (domain or fragment, Rhodobacter sphaeroides, UniProt Q9S301 1-379, looked up)
chain: MLAGGSLPSLAPDLVRDLIATAADISLLVSQEGVVREVMANPHHPSFGQLSEWEGRPLEEVLTAESVAKFRLRSEGLEPGRGSVAVELNHIDPRSFEFPIRYILHRLPADRSILMLGRDLRPIAEVQQQLVAAQLAMERDYETQREMETRYRVVLDVSRDPMVLVSMSTGRIVDLNSAAGLLLGGVRQDLLGAAIAQEFEGRRRGEFMETMTNLAATESAAPVEVLARRSQKRLLVVPRVFRAAGERLLLCQIDPADATQPVGDELSENLARLYHEGVDGIVFSDADGTIRGANEAFLNMTDSSSLAAIRGRSIADFLARGSVDLRVLIDSVRRTGQLRLYATRLTTDFAGQIAAEISATWLDDRERPLLVLVVRDTSR
notes: PpsR from Rhodobacter sphaeroides, UniProt Q9S301; the model ends at 378 with the C-terminal arginine disordered; The forward primer 1_fw introduces ATG GGA before the first codon of PpsR; In MST one copy was randomly labelled at amines with NT-647; A selenomethionine-substituted form was also crystallized for phasing; source: E. coli BL21 (DE3), purified (Ni-NTA, TEV cleavage, Superdex 200); …
Consider B1, for which the “stoichiometry N” value in data set [5] is 4 and 8; in data set [7], 2. This molecule yielded a Kd in data set [6] of 900 ± 200 nM.

B2: PpsR_(full), full-length transcription factor PpsR (photopigment suppression) from Rhodobacter sphaeroides (natural protein, UniProt Q9S301 1-464, looked up)
chain: MLAGGSLPSLAPDLVRDLIATAADISLLVSQEGVVREVMANPHHPSFGQLSEWEGRPLEEVLTAESVAKFRLRSEGLEPGRGSVAVELNHIDPRSFEFPIRYILHRLPADRSILMLGRDLRPIAEVQQQLVAAQLAMERDYETQREMETRYRVVLDVSRDPMVLVSMSTGRIVDLNSAAGLLLGGVRQDLLGAAIAQEFEGRRRGEFMETMTNLAATESAAPVEVLARRSQKRLLVVPRVFRAAGERLLLCQIDPADATQPVGDELSENLARLYHEGVDGIVFSDADGTIRGANEAFLNMTDSSSLAAIRGRSIADFLARGSVDLRVLIDSVRRTGQLRLYATRLTTDFAGQIAAEISATWLDDRERPLLVLVVRDTSRADTMRRPVPATGVIDEPARNVMELVGNSTLKDIVAETTDVVEKMCIETALELTRNNRVAAAEMLSLSRQSLYVKLRKFGLLNKDE
notes: PpsR from Rhodobacter sphaeroides, UniProt Q9S301, full-length protein; gene synthesized with codon optimization for E. coli, cloned in pETM-11; In MST one copy was randomly labelled at amine positions with NT-647 red fluorescent dye (about one label per monomer); In solution a dimer-tetramer equilibrium; source: E. coli BL21 (DE3), purified (Ni-NTA, TEV cleavage, HiTrap Heparin, Superdex 200); …
The molecule B2 had a Kd in data set [6] of 900 ± 300 nM.

One may read the Kd as the constant that tells how readily two partners part at equilibrium. Low values mean tighter binding, high ones weaker binding. As usually defined, the stoichiometry N is a count of units in the complex or per binding partner.
